Biological target: T1, BcgI A subunit, E53A mutant (UniProt Q07605 1-637, E53A)
T1 sequence (looked up): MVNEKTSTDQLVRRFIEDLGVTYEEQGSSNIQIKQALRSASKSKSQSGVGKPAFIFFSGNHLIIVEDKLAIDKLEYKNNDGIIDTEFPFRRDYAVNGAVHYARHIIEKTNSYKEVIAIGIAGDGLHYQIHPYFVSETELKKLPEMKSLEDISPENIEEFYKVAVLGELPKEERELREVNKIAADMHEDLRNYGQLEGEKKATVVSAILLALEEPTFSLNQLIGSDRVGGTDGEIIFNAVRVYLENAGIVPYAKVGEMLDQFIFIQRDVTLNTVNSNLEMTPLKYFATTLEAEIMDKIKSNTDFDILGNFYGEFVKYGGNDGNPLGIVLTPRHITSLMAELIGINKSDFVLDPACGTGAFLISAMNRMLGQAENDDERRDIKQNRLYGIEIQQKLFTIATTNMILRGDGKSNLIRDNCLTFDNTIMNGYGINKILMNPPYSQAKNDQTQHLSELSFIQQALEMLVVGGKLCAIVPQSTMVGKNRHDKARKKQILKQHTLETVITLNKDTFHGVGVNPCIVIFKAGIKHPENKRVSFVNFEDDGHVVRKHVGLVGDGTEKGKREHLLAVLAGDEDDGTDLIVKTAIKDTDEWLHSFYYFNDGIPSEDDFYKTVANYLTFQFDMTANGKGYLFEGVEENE
Test: native MS

binding result: binds
B1: BcgI B subunit (natural protein, UniProt Q07606 1-341, looked up)
chain: MNNLIKYSTFLISDLFDVVIGKTIDGNKAQRNENGTPYITRKATRNGFEFMIDGEKEKLYSGKLPVITIGNETSKPFVQEFHFFTGTKVNICIPKLDLNRNHLLYITTMIENATKMFSYSYTINSTRLKSLKILLPIKGEEPDWDYMNTYISKILSNMEKNFDVQQNDGVSDLRSLKDLSWSQFKMDEIFSINSGVRLTKADMKPGNIPFIGATDSNNGITEFTSSTNASFDGNVLGVNYNGSVVENFYHPYKAVFSDDVKRLKLKNYPNNKHVLLFMKVVILQQKVKYAYGYKFNATRMKEQIILLPTKADGTPDYEFMEQYMMRMENKVVGRTTEKEAD

From PMC3592466 (Nucleic Acids Research, 2012)
